Article PMC5679657, “KSHV inhibits stress granule formation by viral ORF57 blocking PKR activation” (PLoS Pathogens, 2017)

B1: KSHV ORF57, untagged (pcDNA-ORF57) (natural protein)
chain: MVQAMIDMDIMKGILEDSVSSSEFDESRDDETDAPTLEDEQLSEPAEPPADERIRGTQSAQGIPPPLGRIPKKSQGRSQLRSEIQFCSPLSRPRSPSPVNRYGKKIKFGTAGQNTRPPPEKRPRRRPRDRLQYGRTTRGGQCRAAPKRATRRPQVNCQRQDDDVRQGVSDAVKKLRLPASMIIDGESPRFDDSIIPRHHGACFNVFIPAPPSHVPEVFTDRDITALIRAGGKDDELINKKISAKKIDHLHRQMLSFVTSRHNQAYWVSCRRETAAAGGLQTLGAFVEEQMTWAQTVVRHGGWFDEKDIDIILDTAIFVCNAFVTRFRLLHLSCVFDKQSELALIKQVAYLVAMGNRLVEACNLLGEVKLNFRGGLLLAFVLTIPGMQSRRSISARGQELFRTLLEYYRPGDVMGLLNVIVMEHHSLCRNSECAAATRAAMGSAKFNKGLFFYPLS
notes: KSHV ORF57, untagged, expressed from pcDNA-ORF57; also called untagged ORF57; source: HEK293, transfected, in lysate
B2: KSHV ORF57-Flag (wild type, pVM7) (natural protein)
chain: B1 chain
notes: KSHV ORF57 (mRNA transcript accumulation protein, MTA), wild type, expressed from pVM7; also called ORF57 wt; ORF57-wt-Flag; source: HEK293 or HeLa, transfected, in lysate

Columns and labels:
[1] = target: T1, PKR ΔPK-Myc-Flag (aa 1-270) (UniProt P19525 1-270); experiment: co-IP; HEK293 extract with Myc-Flag-tagged PKR FL, ΔPK or ΔRBM mixed with extract with untagged ORF57, RNase A/T1-digested; IP with anti-Flag for PKR; blot anti-ORF57; details: partners not purified
T1 construct: PKR (EIF2AK2) aa 1-270, kinase domain deleted; made from pPKR-FL; also called N-terminal RBM domain of PKR; source: HEK293, transfected, in lysate
T1 sequence (P19525 1-270, stated change not applied): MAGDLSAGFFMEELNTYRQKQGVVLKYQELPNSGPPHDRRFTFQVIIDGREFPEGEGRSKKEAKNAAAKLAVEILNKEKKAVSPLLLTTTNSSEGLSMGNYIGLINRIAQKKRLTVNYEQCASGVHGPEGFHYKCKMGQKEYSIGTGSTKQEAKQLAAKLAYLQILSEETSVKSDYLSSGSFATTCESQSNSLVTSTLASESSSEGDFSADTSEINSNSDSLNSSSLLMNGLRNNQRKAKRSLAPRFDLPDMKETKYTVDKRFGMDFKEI

[2] = target: T2, phosphorylated full-length PKR-Myc-Flag from arsenite-treated cells (UniProt P19525 1-551, phosphorylated; phospho-Thr 451 detected with anti-phosphorylated PKR (Thr 451)); experiment: co-IP; extract of HEK293 cells with PKR-Myc-Flag, untreated or treated with arsenite for 30 min, mixed with HEK293 extract with ORF57-Flag, RNase A/T1-digested; pulled down with anti-Myc beads; blots anti-Flag, anti-pPKR (Thr 451), anti-ORF57; details: partners not purified
T2 construct: protein kinase R (PKR, EIF2AK2), full length, from pPKR-FL, phosphorylated in arsenite-treated cells; Other phosphorylated sites are not determined in this experiment; also called p-PKR; phosphorylated FL PKR; source: HEK293, transfected, treated with arsenite for 30 min, in lysate
T2 sequence (P19525 whole entry): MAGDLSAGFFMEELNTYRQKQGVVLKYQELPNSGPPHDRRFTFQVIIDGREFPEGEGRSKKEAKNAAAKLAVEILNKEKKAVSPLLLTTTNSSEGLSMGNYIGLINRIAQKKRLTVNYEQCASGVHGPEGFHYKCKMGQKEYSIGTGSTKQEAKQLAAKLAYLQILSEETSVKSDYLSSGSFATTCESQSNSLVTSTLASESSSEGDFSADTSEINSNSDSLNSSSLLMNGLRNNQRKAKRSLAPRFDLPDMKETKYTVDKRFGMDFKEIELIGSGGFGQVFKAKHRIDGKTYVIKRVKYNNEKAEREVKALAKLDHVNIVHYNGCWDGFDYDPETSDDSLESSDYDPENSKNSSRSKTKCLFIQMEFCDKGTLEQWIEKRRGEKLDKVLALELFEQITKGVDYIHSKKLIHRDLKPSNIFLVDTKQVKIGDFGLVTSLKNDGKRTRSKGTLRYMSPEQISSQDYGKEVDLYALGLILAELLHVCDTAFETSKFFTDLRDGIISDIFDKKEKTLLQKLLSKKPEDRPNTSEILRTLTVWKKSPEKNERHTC

| Binder | fold binding relative to FL PKR [1] [fold] | fold binding relative to PKR from untreated cells [2] [times] |
| --- | --- | --- |
| B1 | ~6.5 |  |
| B2 |  | ~3 |
